Like-named read-outs stand apart in the source and are kept apart here. Blank lines part the entries; values can stand above or below the binder they belong to.
What was measured:
[1] = target: T1, recombinant human IL-6R (human, UniProt P08887 20-365, limits assumed); assay: ELISA on plate-coated recombinant human IL-6R; anti-human IgG1-Fc-HRP, OD450
T1 construct: Recombinant protein used in ELISA and as SPR analyte; also called hIL-6R
T1 sequence (looked up): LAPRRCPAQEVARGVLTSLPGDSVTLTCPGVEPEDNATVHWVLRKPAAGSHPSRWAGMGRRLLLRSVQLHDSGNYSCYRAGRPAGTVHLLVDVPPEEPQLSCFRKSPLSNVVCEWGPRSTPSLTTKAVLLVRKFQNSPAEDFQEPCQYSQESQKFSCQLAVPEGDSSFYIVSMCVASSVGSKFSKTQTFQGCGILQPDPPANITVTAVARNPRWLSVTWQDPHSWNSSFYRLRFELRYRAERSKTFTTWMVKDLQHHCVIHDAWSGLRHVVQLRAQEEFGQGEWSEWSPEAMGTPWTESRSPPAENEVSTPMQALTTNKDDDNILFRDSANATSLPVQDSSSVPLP
Protocol: (§1) After non-specific blocking using 1% BSA at 25° C. for 1 hour, a series of dilutions of test antibodies (“Abs”) were added into the coated wells and incubated at 25° C. for 1 hour. The bound Abs were detected using a secondary Ab (goat anti-human IgG1-Fc) conjugated with HRP followed by OD₄₅₀ reading.
(§2) The same ELISA procedure was performed with recombinant human IL-6R. […] Vobarilizumab is a single domain antibody against IL-6R. B781402 and B781405 are bispecific fusion antibodies that inhibit VEGF-A, B, PIGF and IL-6R.

[2] = target: T1, recombinant human IL-6R; assay: as above; remark: listed apart in the source
Protocol: as §1, §2

[3] = target: T2, human Ang-1-Fc (human, UniProt Q15389 20-498, limits assumed); assay: FACS competition: soluble human Tie-2 ECD (positive control) pre-incubated with 2 µg/ml human Ang-1-Fc, then HEK-293 cells overexpressing human Tie-2; blocked: Ang-1-Fc binding to cell-bound Tie-2
T2 construct: not shown: Fc part
T2 sequence (looked up): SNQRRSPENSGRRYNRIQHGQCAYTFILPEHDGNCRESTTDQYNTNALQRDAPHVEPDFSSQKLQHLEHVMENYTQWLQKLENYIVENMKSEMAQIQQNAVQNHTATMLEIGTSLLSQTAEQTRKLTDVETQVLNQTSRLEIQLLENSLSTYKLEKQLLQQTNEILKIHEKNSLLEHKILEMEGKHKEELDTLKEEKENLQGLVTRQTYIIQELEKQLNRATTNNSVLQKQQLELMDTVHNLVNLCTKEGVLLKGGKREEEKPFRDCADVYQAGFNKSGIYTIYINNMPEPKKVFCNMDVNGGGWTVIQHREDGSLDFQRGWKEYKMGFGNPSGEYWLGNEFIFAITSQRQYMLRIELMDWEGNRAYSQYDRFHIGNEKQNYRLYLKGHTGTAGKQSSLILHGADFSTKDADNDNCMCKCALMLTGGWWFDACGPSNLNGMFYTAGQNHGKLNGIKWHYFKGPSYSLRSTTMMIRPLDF

[4] = target: T2, human Ang-1-Fc; assay: FACS competition: soluble recombinant hTie-2 (positive control) pre-incubated with 2 µg/ml human Ang-1-Fc, then HEK-293 cells overexpressing human Tie-2; blocked: Ang-1-Fc binding to cell-bound Tie-2
[5] = target: T1, recombinant human IL-6R; assay: SPR Biacore, 25 C; test antibody captured by anti-human IgG (Fc) on CM5 chip, target protein as analyte; 1:1 model
Protocol: (§3) SPR Biacore assay was performed at 25° C. with HBS-EP+ as a running buffer. The assay was performed by immobilization of the anti-human IgG (Fc) antibody onto the CM5 sensor chip surface and determined the level of ligand immobilization. […] Test antibodies were injected over the surface of Series S Sensor Chip CM5 as Capture. The analytes (target proteins) were diluted with running buffer into different concentrations and injected over the sensor surface as the association phase for affinity and kinetics measurements. The 1:1 binding model was used to measure the binding affinity and/or kinetics.

[6] = target: T1, recombinant human IL-6R; assay: as above; remark: listed apart in the source
Protocol: as §3

[7] = target: T3, human IL-6R overexpressed on engineered CHO-S cells (human, UniProt P08887 20-468); assay: FACS competition: antibody with biotinylated human IL-6 and CHO-S cells overexpressing human IL-6R; blocked: IL-6 binding to IL-6R
T3 construct: whole, on cells; also called IL-6R-expressing CHO-S cells
T3 sequence (looked up): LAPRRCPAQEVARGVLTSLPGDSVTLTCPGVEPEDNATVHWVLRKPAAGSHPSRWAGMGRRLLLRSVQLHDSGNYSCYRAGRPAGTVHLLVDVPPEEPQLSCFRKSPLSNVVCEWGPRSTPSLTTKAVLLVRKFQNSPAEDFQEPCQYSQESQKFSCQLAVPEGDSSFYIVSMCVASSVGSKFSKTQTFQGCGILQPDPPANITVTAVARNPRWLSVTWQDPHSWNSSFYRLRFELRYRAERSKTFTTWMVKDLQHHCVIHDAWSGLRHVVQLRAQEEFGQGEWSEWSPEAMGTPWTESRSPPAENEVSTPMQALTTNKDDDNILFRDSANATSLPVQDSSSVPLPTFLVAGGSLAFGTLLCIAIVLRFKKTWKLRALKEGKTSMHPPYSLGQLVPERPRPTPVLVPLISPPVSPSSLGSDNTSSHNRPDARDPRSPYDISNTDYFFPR
Text: (§4) Vobarilizumab is a single domain antibody (also termed nanobody) against human IL-6R.

[8] = target: T3, human IL-6R overexpressed on engineered …; assay: as above; remark: listed apart in the source
Text: as §4

EC50 [1]: 1.39 nM
EC50 [2]: 1.36 nM
B1: Vobarilizumab (VHH)
VHH 1: EVQLVESGGGLVQPGGSLRLSCAASGSVFKINVMAWYRQAPGKGRELVAGIISGGSTSYADSVKGRFTISRDNAKNTLYLQMNSLRPEDTAVYYCAFITTESDYDLGRRYWGQGTLVTVSS
VHH 2: QIILTQSPAIMSASLGEEITLTCSATSSVTYVHWYQQKSGTSPKLLIYGTSNLASGVPSRFSGSGSGTFYSLTVSSVEAEDAADYYCHQWNSYPHTFGGGTKLEIK

IC50 [3]: 42.9 nM
IC50 [4]: 53 nM
B2: hTie2 (receptor)
chain: AMDLILINSLPLVSDAETSLTCIASGWRPHEPITIGRDFEALMNQHQDPLEVTQDVTREWAKKVVWKREKASKINGAYFCEGRVRGEAIRIRTMKMRQQASFLPATLTMTVDKGDNVNISFKKVLIKEEDAVIYKNGSFIHSVPRHEVPDILEVHLPHAQPQDAGVYSARYIGGNLFTSAFTRLIVRRCEAQKWGPECNHLCTACMNNGVCHEDTGECICPPGFMGRTCEKACELHTFGRTCKERCSGQEGCKSYVFCLPDPYGCSCATGWKGLQCNEACHPGFYGPDCKLRCSCNNGEMCDRFQGCLCSPGWQGLQCEREGIQRMTPKIVDLPDHIEVNSGKFNPICKASGWPLPTNEEMTLVKPDGTVLHPKDFNHTDHFSVAIFTIHRILPPDSGVWVCSVNTVAGMVEKPFNISVKVLPKPLNAPNVIDTGHNFAVINISSEPYFGDGPIKSKKLLYKPVNHYEAWQHIQVTNEIVTLNYLEPRTEYELCVQLVRRGEGGEGHPGPVRRFTTASIGLPPPRGLNLLPKSQTTLNLTWQPIFPSSEDDFYVEVERRSVQKSDQQNIKVPGNLTSVLLNNLHPREQYVVRARVNTKAQGEWSEDLTAWTLSDILPPQPENIKISNITHSSAVISWTILDGYSISSITIRYKVQGKNEDQHVDVKIKNATITQYQLKGLEPETAYQVDIFAENNIGSSNPAFSHELVTLPESQAPADLGGGKMLL
notes: also called human Tie-2 ECD; recombinant hTie-2

EC50 [1]: 0.05 nM
EC50 [2]: 0.028 nM
Kd [5]: 1.1 nM
koff [5]: 0.00046 s⁻¹
kon [5]: 420000 M⁻¹ s⁻¹
Kd [6]: 1.4 nM
koff [6]: 0.000521 s⁻¹
kon [6]: 373000 M⁻¹ s⁻¹
IC50 [7]: 0.756 nM
IC50 [8]: 1.82 nM
B3: Tocilizumab (antibody, V domains shown)
VH: QVQLQESGPGLVRPSQTLSLTCTVSGYSITSDHAWSWVRQPPGRGLEWIGYISYSGITTYNPSLKSRVTMLRDTSKNQFSLRLSSVTAADTAVYYCARSLARTTAMDYWGQGSLVTVSS
VL: DIQMTQSPSSLSASVGDRVTITCRASQDISSYLNWYQQKPGKAPKLLIYYTSRLHSGVPSRFSGSGSGTDFTFTISSLQPEDIATYYCQQGNTLPYTFGQGTKVEIKR
notes: mAb against human IL-6R used as comparator
